Measured values: IntAct's records for PubMed 25502805

Each substance was assayed against hbaz_human HBZ (UniProt P02008).

Row | Substance | effect of a mutation on the interaction
1 | Hemoglobin subunit beta (Homo sapiens), P68871 V127G | disrupting interaction strength
2 | Hemoglobin subunit beta (Homo sapiens), P68871 N103Y | with no effect
3 | Hemoglobin subunit beta (Homo sapiens), P68871 E102Q | disrupting interaction strength
4 | Hemoglobin subunit beta (Homo sapiens), P68871 L115P | disrupting interaction strength
5 | Hemoglobin subunit beta (Homo sapiens), P68871 E122V | disrupting interaction strength
6 | Hemoglobin subunit beta (Homo sapiens), P68871 F104L | disrupting interaction strength
7 | Hemoglobin subunit beta (Homo sapiens), P68871 H118Y | disrupting interaction strength
8 | Hemoglobin subunit beta (Homo sapiens), P68871 P101A | disrupting interaction strength

Continued, values first:

Row | effect of a mutation on the interaction | Substance
9 | disrupting interaction strength | Hemoglobin subunit beta (Homo sapiens), P68871 S10C
10 | disrupting interaction strength | Hemoglobin subunit beta (Homo sapiens), P68871 V114E
11 | disrupting interaction strength | Hemoglobin subunit beta (Homo sapiens), P68871 D100Y
12 | disrupting interaction strength | Hemoglobin subunit beta (Homo sapiens), P68871 F123S

The substances below were run against vps29_human VPS29 (UniProt Q9UBQ0).

Row | effect of a mutation on the interaction | Substance
13 | with no effect | Vacuolar protein sorting-associated protein 35 (Homo sapiens) (from UniProt Q96QK1) R524W
14 | with no effect | Vacuolar protein sorting-associated protein 35 (Homo sapiens) (from UniProt Q96QK1) D620N
